Test results: paper PMC9205196

Target: Recombinant human FGF2 (fibroblast growth factor-2), biotinylated (human)
Assay: AlphaScreen or HTRF

B1: mSDC1: commercial glycosylated, mammalian expressed recombinant mouse SDC1 ectodomain (domain or fragment)
chain: QIVAVNVPPEDQDGSGDDSDNFSGSGTGALPDTLSRQTPSTWKDVWLLTATPTAPEPTSSNTETAFTSVLPAGEKPEEGEPVLHVEAEPGFTARDKEKEVTTRPRETVQLPITQRASTVRVTTAQAAVTSHPHGGMQPGLHETSAPTAPGQPDHQPPRVEGGGTSVIKEVVEDGTANQLPAGEGSGEQDFTFETSGENTAVAAVEPGLRNQPPVDEGATGASQSLLDRKEVLG
modifications: native GAG chains from the mammalian host (CS predominant over HS by the paper's disaccharide analysis)
- EC50: 7 nM
